T1: S100A9(C3S) subunit of CP-Ser (human, UniProt P06702 1-114, C3S)
T1 construct: S100A9 (calgranulin B, MRP-14), human, 114 amino acids; also called β subunit
T1 sequence (looked up): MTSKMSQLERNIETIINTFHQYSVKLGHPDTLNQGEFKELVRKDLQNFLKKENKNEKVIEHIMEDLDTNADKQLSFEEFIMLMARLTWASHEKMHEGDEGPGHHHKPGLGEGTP


Biological target: T1, S100A9(C3S) subunit of CP-Ser
Assay: co-purification; subunits overexpressed and purified as described previously (ref. 19); the protocol affords the S100A8/S100A9 heterodimer; subunits judged by gel electrophoresis and mass spectrometry

binding result | Binder
binds | S100A8(C42S)(I60E) subunit (natural protein, human, UniProt P05109 1-93, looked up, S100A8, human, 93 amino acids; also called S100A8 subunit of I60E) MLTELEKALNSIIDVYHKYSLIKGNFHAVYRDDLKKLLETESPQYIRKKGADVWFKELDENTDGAVNFQEFLILVIKMGVAAHKKSHEESHKE
binds | S100A8(C42S)(I60K) subunit (natural protein, human, UniProt P05109 1-93, looked up, S100A8, human, 93 amino acids; also called S100A8 subunit of I60K) MLTELEKALNSIIDVYHKYSLIKGNFHAVYRDDLKKLLETESPQYIRKKGADVWFKELDKNTDGAVNFQEFLILVIKMGVAAHKKSHEESHKE

Source: paper PMC4763987, “Calcium-induced tetramerization and zinc chelation shield human calprotectin from degradation by host and bacterial extracellular proteases† †Electronic supplementary information (ESI) available: Supplementary Tables S1–S6, supplementary Fig. S1–S22. Data for protease activity controls are included …” (Chemical Science, 2015)
